Results from article PMC8882101.

Columns and labels:
[1] = molecular target: Cry1Ia38 protoxin (Bacillus thuringiensis (strain IE-1)); experiment: SDS-PAGE of samples heated at 50 °C, Western blot; control without BBMV: Cry1Ia protein incubated in carbonate buffer pH 10.5 at 37 °C, sample heated at 50 °C for 3 min, 10% SDS-PAGE, polyclonal anti-Cry1Ia
[2] = molecular target: Cry1Ia38 protoxin (Bacillus thuringiensis (strain IE-1)); experiment: SEC; Superdex-200 10/300 GL, carbonate buffer (50 mM Na2CO3, 100 mM NaCl) pH 10.5; oligomeric state from the molecular weight of the eluted peaks against standards
[3] = molecular target: Cry1Ia38 protoxin (Bacillus thuringiensis (strain IE-1)); experiment: SDS-PAGE of samples heated at 50 °C, Western blot; 5 µg Cry1Ia protein incubated with 2 µg O. nubilalis BBMV in 50 µl carbonate buffer pH 10.5 at 37 °C (5-30 min); BBMV pellet heated at 50 °C for 3 min, 10% SDS-PAGE, polyclonal anti-Cry1Ia
[4] = molecular target: fully trypsin activated Cry1Ia toxin (Bacillus thuringiensis (strain IE-1)); experiment: SEC; Superdex-200 10/300 GL, carbonate buffer (50 mM Na2CO3, 100 mM NaCl) pH 10.5; oligomeric state from the molecular weight of the eluted peaks against standards
[5] = molecular target: partially processed Cry1Ia protoxin (~67 kDa intermediate fragment) (Bacillus thuringiensis (strain IE-1)); experiment: SDS-PAGE of samples heated at 50 °C, Western blot; 5 µg Cry1Ia protein incubated with 2 µg O. nubilalis BBMV in 50 µl carbonate buffer pH 10.5 at 37 °C (5-30 min); BBMV pellet heated at 50 °C for 3 min, 10% SDS-PAGE, polyclonal anti-Cry1Ia
[6] = molecular target: fully MJ activated Cry1Ia toxin (Bacillus thuringiensis (strain IE-1)); experiment: SEC; Superdex-200 10/300 GL, carbonate buffer (50 mM Na2CO3, 100 mM NaCl) pH 10.5; oligomeric state from the molecular weight of the eluted peaks against standards

Cry1Ia38 protoxin (natural protein) was tested, and the stoichiometry N [1] was 2, the stoichiometry N [2] was 2 and the stoichiometry N [3] was 2.
“fully trypsin activated Cry1Ia toxin (domain or fragment)” showed a stoichiometry N [4] of 2.
Work on “partially processed Cry1Ia protoxin (~67 kDa intermediate fragment) (domain or fragment)” yielded a stoichiometry N [5] of 2.
With “fully MJ activated Cry1Ia toxin (domain or fragment)” the stoichiometry N [6] was 2.
